The values that follow come from patent US20240382633A1, “RADIOPHARMACEUTICALS, METHODS FOR THE PRODUCTION THEREOF, AND USES IN TREATMENT, DIAGNOSIS AND IMAGING DISEASES” (priority 2021, published 2024).

The nature of one series: in vivo. Details: species or system Balb/c nude mice. The following applies: male, Balb/c nude, mouse, iv, total radioactivity, Percentage of injected dose. An excerpt: (§1) Healthy male Balb/c nude mice (˜18 g) from 8 weeks old were obtained from the ARC and used for this study. Mice were imported into the CAI animal holding facility and monitored for 1 week prior to the study in order to acclimatize to the environment prior to injection of cells. All animals were provided with free access to food and water before and during the imaging experiments which were approved by the University of Queensland Animal Ethics Committee (Approval #AIBN/CAI/105/19/ARC/NHMRC).
(§2) 8-week-old male Balb/c nude mice were injected (27G needle) subcutaneously with PC3 ([…]) cells in 50 μL of 50:50 matrigel and cells in phosphate buffered saline into the right flank of each mouse. There was no evidence of ulceration at the time of dosing; the animals were closely monitored and remained in good condition apart from the growth of tumours. […] Labelled peptides were injected via the tail vein (29G needle; ˜2-3 MBq) and then mice were imaged using the Siemens Inveon PET-CT instrument at the various time points.
(§3) Organs were excised at 24 hours, with the percentage of injected dose of the administered compound determined by ex vivo gamma counting (Table 1, FIG. 5). Values are averages across 4 mice.

Another series relates to PC3 tumours. Nature of the series: in vivo. Details: species or system Balb/c nude mice. The conditions noted are these: mouse.
Text: as §1, §2, §3

The nature of series [1]: Stability of aqueous formulation (radiochemical purity over time). The conditions noted are these: up to 48 hours post End of Synthesis, 3 validation batches. The class given is physicochemical. The method, then: Product stability was monitored up to 48 hours post End of Synthesis (EOS) for 3 validation batches of [^64Cu]Formula (Ib) in an aqueous formulation prepared as outlined above. Due to time restrictions, identical stability sampling time points were not always achievable. […] This is attributed to radioactive decay reducing the peak area of radiolytic impurities to below detectable limits, rather than a true increase in the radiochemical purity.

As usually defined, the tissue uptake is the share of the injected amount in each gram of the tissue.

Consider `CC(C)C[C@H](NC(=O)C[C@H](O)[C@H](CC(C)C)NC(=O)[C@H](Cc1c[nH]cn1)NC(=O)CNC(=O)[C@@H](NC(=O)[C@H](C)NC(=O)[C@H](Cc1c[nH]c2ccccc12)NC(=O)[C@H](CCC(N)=O)NC(=O)[C@@H](Cc1ccccc1)NC(=O)CCOCCOCCOCCOCCNC(=O)CCCC(=O)NC12CNCCNCC(NC(=O)CCCC(=O)NCCOCCOCCOCCOCCC(=O)N[C@H](Cc3ccccc3)C(=O)N[C@@H](CCC(N)=O)C(=O)N[C@@H](Cc3c[nH]c4ccccc34)C(=O)N[C@@H](C)C(=O)N[C@H](C(=O)NCC(=O)N[C@@H](Cc3c[nH]cn3)C(=O)N[C@@H](CC(C)C)[C@@H](O)CC(=O)N[C@@H](CC(C)C)C(N)=O)C(C)C)(CNCCNC1)CNCCNC2)C(C)C)C(N)=O` [[^64Cu]Formula (Ia), metal not drawn], for which the tissue uptake at 24 h amounted to 0.1 ± 0.05 %ID/g in the series “in vivo” (Blood); 0.44 ± 0.04 %ID/g in “in vivo” (GI Tract); 0.21 ± 0.03 %ID/g in the series “in vivo” (Heart); 6.81 ± 0.67 %ID/g in “in vivo” (Kidneys); 16.8 ± 1.55 %ID/g in “in vivo” (Liver); 0.36 ± 0.12 %ID/g in the series “in vivo” (Lungs). Also, the tissue uptake at 24 h in “in vivo” (Pancreas) is 0.84 ± 0.06 %ID/g; in the series “in vivo” (Spleen), 1.47 ± 0.2 %ID/g; in “in vivo” (Tumour) it was 2.13 ± 0.86 %ID/g. The “Percentage of injected dose, Tail” value in the series with PC3 tumours was 0.28 0.05 % ID/g.

As for `CC(C)C[C@H](NC(=O)C[C@H](O)[C@H](CC(C)C)NC(=O)[C@H](Cc1c[nH]cn1)NC(=O)CNC(=O)[C@@H](NC(=O)[C@H](C)NC(=O)[C@H](Cc1c[nH]c2ccccc12)NC(=O)[C@H](CCC(N)=O)NC(=O)[C@@H](Cc1ccccc1)NC(=O)CCOCCOCCOCCOCCNC(=O)CCCC(=O)NC12CNCCNCC(C)(CNCCNC1)CNCCNC2)C(C)C)C(N)=O` [[^64Cu]Formula (Ib), metal not drawn], the tissue uptake at 24 h in “in vivo” (Blood) stood at 0.13 ± 0.04 %ID/g; in the series “in vivo” (GI Tract) it was 0.3 ± 0.07 %ID/g; in “in vivo” (Heart), 0.24 ± 0.02 %ID/g; in the series “in vivo” (Kidneys), 3.55 ± 0.79 %ID/g; in the series “in vivo” (Liver), 1.52 ± 0.18 %ID/g; in “in vivo” (Lungs), 0.31 ± 0.08 %ID/g. The tissue uptake at 24 h in the series “in vivo” (Pancreas) turned out to be 0.23 ± 0.02 %ID/g; in “in vivo” (Spleen), 0.38 ± 0.06 %ID/g; in “in vivo” (Tail) it was 0.56 ± 0.87 %ID/g; in the series “in vivo” (Tumour), 4.09 ± 0.52 %ID/g. In series [1], the “radiochemical purity (stability)” value is reported as no less than 92.4%.
